What is called AUC(0-inf) is the area under the concentration-time curve extrapolated to infinity. Lower therefore signals less exposure. In general, half-life refers to the time in which the quantity being followed falls by half. High values mean slow decline, low ones rapid decline. As a reminder, the Cmax is the highest concentration seen after dosing. What is called Tmax is the time at which the peak concentration occurs. Broadly, the bioavailability is the share of a dose that reaches the circulation, judged against a reference dose that is usually intravenous. A low value points to poor availability.

This note sets out measurements from paper PMC5893306 (Molecular pharmaceutics, 2018).

Data set [1] is described as follows: Rat pharmacokinetics, IV and SC.
Data set [2] is described as follows: Solubility in standard aqueous buffers. Type of data set: physicochemical. To be noted: standard aqueous buffers (e.g., PBS, HEPES) at physiological pH.
The nature of data set [3]: Non-human primate pharmacokinetics, IV and SC. The format is in vivo, cynomolgus monkeys. To be noted: male, cynomolgus monkey, plasma; for half-life: pH 7.4.
Where [4] appears, read: male, rat, in vivo, iv, 1 mg/kg.
Setting [5] is: male, rat, in vivo, sc, 1 mg/kg.

*1 amine or outer side, *2 acyl side, *3 side chain or, on linkers, in order; H or OH if unused. Bridges are numbered along the chain shown (N, C = ends). Roman numbers before positions name the chains, in order. [ ]: non-standard residue; d: D form. X1 = CC(C)CCC[C@@H](C)[C@H]1CC[C@H]2[C@@H]3CC=C4C[C@@H](OC(=O)NCCOCCOCCOCCOCCC(=O)NCCOCCOCCOCCOCCOCCOCCOCCOCCOCCOCCOCCOCCOCCOCCOCCOCCOCCOCCOCCOCCOCCOCCOCCOCCOCCOCCOCCOCCC(=O)NC(CCC(=O)[*:1])(CCC(=O)[*:2])CCC(=O)[*:3])CC[C@]4(C)[C@H]3CC[C@]12C; PEG4 = NCCOCCOCCOCCOCCC(=O)O

Take “I: Ac-[dH][dP][dC][dD][dY][dP][dE][dW][dQ][dW][dL][dC][dE][dL]G[PEG4][dK]-NH2 / II: Ac-[dH][dP][dC][dD][dY][dP][dE][dW][dQ][dW][dL][dC][dE][dL]G[PEG4][dK]-NH2 / III: Ac-[dH][dP][dC][dD][dY][dP][dE][dW][dQ][dW][dL][dC][dE][dL]G[PEG4][dK]-NH2 (disulfide I:3-I:12, II:3-II:12, III:3-III:12; linker I:17-II:17-III:17 via X1) [CPT31]”: in data set [1] (setting [4]), the AUC(0-inf) turned out to be 3.84 µM·h, the C0 was determined as 2950 nM, the Vd turned out to be 0.134 L/kg and the clearance was 0.483 mL/min/kg. In data set [1] (male, rat, in vivo, iv, 1 mg/kg, pH 7.4), the half-life was 3.3 h. In data set [1] (setting [5]), the area under the curve AUC(0-inf) is 2.11 µM·h, the Cmax came to 261 nM, the time of peak concentration (Tmax) worked out at 2 h and the half-life was 5.4 h. The “prolongation of IV half-life” value in data set [1] (rats, IV, compared to Chol-PIE12-trimer) is 2 fold. The “prolongation of SC half-life” value in data set [1] (rats, SC, compared to Chol-PIE12-trimer) is on record as 1.4 fold. In addition, in data set [2], the solubility was ~ 40 mg/ml. In data set [3] (iv, 1 mg/kg), this substance gave an area under the curve AUC(0-inf) of 11.6 µM·h, a C0 of 3110 nM, a Vd of 0.097 L/kg and a clearance of 0.158 mL/min/kg. For the same substance, the half-life in data set [3] (iv, 1 mg/kg) was 7.4 h. Besides, in data set [3] (sc, 3 mg/kg), the area under the curve AUC(0-inf) came out at 29.4 µM·h, the highest concentration (Cmax) stood at 922 nM, the Tmax worked out at 8 h and the bioavailability stood at 80%. In data set [3] (sc, 3 mg/kg), this substance showed a half-life of 18.8 h.
